Assay results reported in paper PMC9177416, “Discovery of non-squalene triterpenes” (Nature, 2022).

Target: the molecule itself
Experiment: cryo-EM structure; non-cross-linked full-length MpMS, unliganded, 50 uM in 20 mM HEPES pH 7.5, 150 mM NaCl, 1 mM DTT; only the PT domain reconstructed; map resolution 3.17 Å

B1: Macrophomina phaseolina macrophomene synthase (enzyme, Macrophomina phaseolina MS6, UniProt K2SUY0 1-698, looked up)
chain: MCNTKCYNTLAKMTVITEPAMEYMYSVPLDESEYDKCGFCQDPRYRPRRHKDQHLARAGSAKAKELCEALIGVYPRPTCESAVGHSIALVMPECMPGRVEAMGEFMESIFYMDNIAESGSQQDTGNLGTEWANDMETGPTTSVNSNTGAKQVMAKLALQLLSIDPVCAGNVMKAWKEWAAGFAKPRRFDSIEQYIDYRLVDSGAIVAVHLMNFGMGLDISVEELREVSDIVNHAGKALSYQNDFFSFNYEHDMFVKLPDSIGIANAVFVLAETEGLSLAEAKERVKELAKEHEDAVLRLKDEVESKVSYKLRICLEGLVDMVVGNLVWSASCDRYSSYRREKHQMELPIRIQGPPTPPQEPVYEKATLPNGKQLDAPTESSGKDLSDGVATLSGDEPVLGDEIVSAPIKYLESLPSKGFREAIIDGMNGWLNLPARSVSIIKDVVKHIHTASLLCDDIEDSSPLRRGQPSAHIIFGVSQTVNSTSYLWTLAIDRLSELSSPKSLRIFIDEVRKMQIGQSFDLHWTAALQCPSEEEYLSMIDMKTGGLFHLLIRLMIAESPRKVDMDFSGLVSMTGRYFQIRDDLSNLTSEEYENQKGYCEDLDEGKYSLPLIHALKHTKNKVQLESLLIQRKTQGGMTLEMKRLAIQIMKEAGSLEHTRKVVLELQDAVHRELAKLEEAFGQENYVIQLALERLRIKA
notes: codon-optimized synthetic gene cloned NdeI/EcoRI into pET28a (pRC088); Used without cross-linking in one cryo-EM sample and cross-linked with 0.06% glutaraldehyde in another; Only the PT domain (plus one TC helix in the cross-linked sample) could be modelled; also called MpMS; MPH_02178; source: E. coli BL21(DE3), purified (Ni-NTA, Resource Q anion exchange, Superose 6 size exclusion)
  stoichiometry N: 6
